Reference: patent US20220010020A1 (Five Prime, published 2022)

What was measured:
[1] = target: T1, FGFR2-IIIb (fibroblast growth factor receptor 2 IIIb splice form) (human, UniProt P21802 22-377); experiment: ELISA potency of forced oxidation samples
T1 construct: also called FGFR2b; KGFR
T1 chain: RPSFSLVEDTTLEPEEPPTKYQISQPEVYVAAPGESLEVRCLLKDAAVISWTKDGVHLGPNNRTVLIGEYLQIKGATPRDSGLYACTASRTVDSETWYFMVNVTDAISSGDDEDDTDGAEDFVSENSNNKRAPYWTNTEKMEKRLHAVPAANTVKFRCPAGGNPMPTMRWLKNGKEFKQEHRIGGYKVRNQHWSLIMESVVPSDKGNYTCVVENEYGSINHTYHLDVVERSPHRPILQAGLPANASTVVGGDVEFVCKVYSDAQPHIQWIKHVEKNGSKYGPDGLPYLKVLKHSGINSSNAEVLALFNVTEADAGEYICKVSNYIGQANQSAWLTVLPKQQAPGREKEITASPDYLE

[2] = target: T1, FGFR2-IIIb (fibroblast growth factor …); experiment: blocking ELISA (potency), forced oxidation study
[3] = target: T1, FGFR2-IIIb (fibroblast growth factor …); experiment: blocking ELISA (potency), forced oxidation study; blocked ligand not named

Binder	Potency By ELISA [1]	% Potency (Assay 1), against Reference [2] [%]	% Potency (Assay 2), against Reference [2] [%]	IC50 [3] [µg/mL]
anti-FGFR2-IIIb antibody (afucosylated, humanized IgG1 monoclonal antibody), control sample incubated without hydrogen peroxide (antibody, V domains shown, also called αFGFR2b; Sample 1) VH: QVQLVQSGAEVKKPGSSVKVSCKASGYIFTTYNVHWVRQAPGQGLEWIGSIYPDNGDTSYNQNFKGRATITADKSTSTAYMELSSLRSEDTAVYYCARGDFAYWGQGTLVTVSS VL: DIQMTQSPSSLSASVGDRVTITCKASQGVSNDVAWYQQKPGKAPKLLIYSASYRYTGVPSRFSGSGSGTDFTFTISSLQPEDIATYYCQQHSTTPYTFGQGTKLEIKR	84	79	89	0.0272
anti-FGFR2-IIIb antibody incubated with 0.01% hydrogen peroxide overnight at room temperature (force oxidized) (antibody, human IgG1, kappa, V domains shown, Same antibody as m1 after peroxide treatment; also called +0.01% H2O2; 0.01% H2O2) VH: QVQLVQSGAEVKKPGSSVKVSCKASGYIFTTYNVHWVRQAPGQGLEWIGSIYPDNGDTSYNQNFKGRATITADKSTSTAYMELSSLRSEDTAVYYCARGDFAYWGQGTLVTVSS VL: DIQMTQSPSSLSASVGDRVTITCKASQGVSNDVAWYQQKPGKAPKLLIYSASYRYTGVPSRFSGSGSGTDFTFTISSLQPEDIATYYCQQHSTTPYTFGQGTKLEIKR	102	98	106	0.0208
anti-FGFR2-IIIb antibody incubated with 1.0% hydrogen peroxide overnight at room temperature (force oxidized) (antibody, human IgG1, kappa, V domains shown, Same antibody as m1 after peroxide treatment; also called +1.0% H2O2; 1.0% H2O2) VH: QVQLVQSGAEVKKPGSSVKVSCKASGYIFTTYNVHWVRQAPGQGLEWIGSIYPDNGDTSYNQNFKGRATITADKSTSTAYMELSSLRSEDTAVYYCARGDFAYWGQGTLVTVSS VL: DIQMTQSPSSLSASVGDRVTITCKASQGVSNDVAWYQQKPGKAPKLLIYSASYRYTGVPSRFSGSGSGTDFTFTISSLQPEDIATYYCQQHSTTPYTFGQGTKLEIKR	83	73	93	0.0257
anti-FGFR2-IIIb antibody incubated with 0.1% hydrogen peroxide overnight at room temperature (force oxidized) (antibody, human IgG1, kappa, V domains shown, Same antibody as m1 after peroxide treatment; also called +0.1% H2O2; 0.1% H2O2) VH: QVQLVQSGAEVKKPGSSVKVSCKASGYIFTTYNVHWVRQAPGQGLEWIGSIYPDNGDTSYNQNFKGRATITADKSTSTAYMELSSLRSEDTAVYYCARGDFAYWGQGTLVTVSS VL: DIQMTQSPSSLSASVGDRVTITCKASQGVSNDVAWYQQKPGKAPKLLIYSASYRYTGVPSRFSGSGSGTDFTFTISSLQPEDIATYYCQQHSTTPYTFGQGTKLEIKR	89	78	100	0.0259
